Source: patent US20190086422A1

How the values were obtained:
[1] = biological target: Tau protein from human CSF (human) (UniProt P10636); test: IP from human CSF, trypsin digest, MS; Tau peptide 151-155 (SEQ ID NO 74) quantified
[2] = biological target: Tau protein from human CSF (human) (UniProt P10636); test: IP from human CSF, trypsin digest, MS; Tau peptide 6-23 (SEQ ID NO 69) quantified
[3] = biological target: Tau protein from human CSF (human) (UniProt P10636); test: IP from human CSF, trypsin digest, MS; Tau peptide 68-87 (SEQ ID NO 72) quantified
[4] = biological target: Tau protein from human CSF (human) (UniProt P10636); test: IP from human CSF, trypsin digest, MS; Tau peptide 175-180 (SEQ ID NO 75) quantified
[5] = biological target: Tau protein from human CSF (human) (UniProt P10636); test: IP from human CSF, trypsin digest, MS; Tau peptide 299-316 as printed (SEQ ID NO 83) quantified
[6] = biological target: Tau protein from human CSF (human) (UniProt P10636); test: IP from human CSF, trypsin digest, MS; Tau peptide 354-369 (SEQ ID NO 84) quantified
[7] = biological target: Tau protein from human CSF (human) (UniProt P10636); test: IP from human CSF, trypsin digest, MS; Tau peptide 260-267 (SEQ ID NO 80) quantified
[8] = biological target: Tau protein from human CSF (human) (UniProt P10636); test: IP from human CSF, trypsin digest, MS; Tau peptide 282-290 (SEQ ID NO 82) quantified
[9] = biological target: Tau protein from human CSF (human) (UniProt P10636); test: IP from human CSF, trypsin digest, MS; Tau peptide 195-209 (SEQ ID NO 77) quantified
[10] = biological target: Tau protein from human CSF (human) (UniProt P10636); test: IP from human CSF, trypsin digest, MS; Tau peptide 212-224 (SEQ ID NO 79) quantified
[11] = biological target: Tau protein from human CSF (human) (UniProt P10636); test: IP from human CSF, trypsin digest, MS; Tau peptide 45-67 (SEQ ID NO 71) quantified
[12] = biological target: Tau protein from human CSF (human) (UniProt P10636); test: IP from human CSF, trypsin digest, MS; Tau peptide 386-395 (SEQ ID NO 85) quantified
[13] = biological target: Tau protein from human CSF (human) (UniProt P10636); test: IP from human CSF, trypsin digest, MS; Tau peptide 275-280 (SEQ ID NO 81) quantified
[14] = biological target: Tau protein from human CSF (human) (UniProt P10636); test: IP from human CSF, trypsin digest, MS; Tau peptide 181-190 (SEQ ID NO 76) quantified
[15] = biological target: Tau protein from human CSF (human) (UniProt P10636); test: IP from human CSF, trypsin digest, MS; Tau peptide 88-126 (SEQ ID NO 73) quantified
[16] = biological target: Tau protein from human CSF (human) (UniProt P10636); test: IP from human CSF, trypsin digest, MS; Tau peptide 396-406 (SEQ ID NO 86) quantified
[17] = biological target: Tau protein from human CSF (human) (UniProt P10636); test: IP from human CSF, trypsin digest, MS; Tau peptide 24-44 (SEQ ID NO 70) quantified
[18] = biological target: Tau protein from human CSF (human) (UniProt P10636); test: IP from human CSF, trypsin digest, MS; Tau peptide 212-221 (SEQ ID NO 78) quantified

UniProt P10636, sequence (P10636 other isoform, or with tags, fused parts or gaps limits assumed): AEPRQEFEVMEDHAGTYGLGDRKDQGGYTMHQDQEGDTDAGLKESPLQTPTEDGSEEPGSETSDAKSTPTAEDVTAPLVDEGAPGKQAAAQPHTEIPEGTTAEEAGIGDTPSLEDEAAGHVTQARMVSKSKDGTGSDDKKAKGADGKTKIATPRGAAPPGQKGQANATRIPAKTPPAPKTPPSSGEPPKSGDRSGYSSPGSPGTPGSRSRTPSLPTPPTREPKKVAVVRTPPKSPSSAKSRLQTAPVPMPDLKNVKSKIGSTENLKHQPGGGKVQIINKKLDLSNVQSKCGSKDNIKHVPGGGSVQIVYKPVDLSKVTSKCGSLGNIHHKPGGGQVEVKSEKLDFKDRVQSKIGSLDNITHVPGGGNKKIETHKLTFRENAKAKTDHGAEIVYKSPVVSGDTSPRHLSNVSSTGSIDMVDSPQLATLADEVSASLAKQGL

Row | Peptide Intensity (fraction of the highest abundance among the three IP antibodies) [1] | Peptide Intensity (fraction of the highest abundance among the three IP antibodies) [2] | Peptide Intensity (fraction of the highest abundance among the three IP antibodies) [3] | Peptide Intensity (fraction of the highest abundance among the three IP antibodies) [4] | Peptide Intensity (fraction of the highest abundance among the three IP antibodies) [5] | Peptide Intensity (fraction of the highest abundance among the three IP antibodies) [6] | Peptide Intensity (fraction of the highest abundance among the three IP antibodies) [7] | Peptide Intensity (fraction of the highest abundance among the three IP antibodies) [8] | Peptide Intensity (fraction of the highest abundance among the three IP antibodies) [9] | Peptide Intensity (fraction of the highest abundance among the three IP antibodies) [10] | Peptide Intensity (fraction of the highest abundance among the three IP antibodies) [11] | Peptide Intensity (fraction of the highest abundance among the three IP antibodies) [12] | Peptide Intensity (fraction of the highest abundance among the three IP antibodies) [13] | Peptide Intensity (fraction of the highest abundance among the three IP antibodies) [14] | Peptide Intensity (fraction of the highest abundance among the three IP antibodies) [15] | Peptide Intensity (fraction of the highest abundance among the three IP antibodies) [16] | Peptide Intensity (fraction of the highest abundance among the three IP antibodies) [17] | Peptide Intensity (fraction of the highest abundance among the three IP antibodies) [18] | Substance
1 | 1 | 0.68 | 1 | 1 | 1 | 1 | 1 | 0.04 | 0.8 | 0.94 | 1 | 1 | 1 | 1 | 1 | 0.39 | 0.84 | 0.86 | HJ8.7 (antibody)
2 | 0.87 | 1 | 0.47 | 0.99 | 0.82 | 0.86 | 0.86 | 1 | 1 | 1 | 0.92 | 0.68 | 0.31 | 0.46 | 0.59 | 0.42 | 0.15 | 1 | Tau12 (antibody)
